The text below walks through data of patent US20260209358A1.

Where only a bound is given, the exact number is not on record here.

In assay [1] the target is T1, CD37 on CD37+ target tumor cells (Daudi or Ramos cells) (UniProt P11049).
T1 sequence (looked up): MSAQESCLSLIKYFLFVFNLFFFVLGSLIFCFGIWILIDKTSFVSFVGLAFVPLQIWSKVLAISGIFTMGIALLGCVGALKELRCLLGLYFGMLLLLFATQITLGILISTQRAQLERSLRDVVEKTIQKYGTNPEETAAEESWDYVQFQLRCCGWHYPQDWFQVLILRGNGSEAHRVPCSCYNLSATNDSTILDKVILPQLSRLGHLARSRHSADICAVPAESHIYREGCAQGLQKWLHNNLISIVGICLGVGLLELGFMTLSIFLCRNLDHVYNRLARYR
Briefly: cell-based or functional assay.

Assay [2] concerns the target hNKp46-His (extracellular domain of hNKp46 with a C-terminal polyhistidine tag) (human) (UniProt O76036). Kind of assay: BLI (Octet RED96), hNKp46-His on Ni-NTA biosensors, MB in solution, 1:1 fit.
Sequence of UniProt O76036 (O76036 22-258): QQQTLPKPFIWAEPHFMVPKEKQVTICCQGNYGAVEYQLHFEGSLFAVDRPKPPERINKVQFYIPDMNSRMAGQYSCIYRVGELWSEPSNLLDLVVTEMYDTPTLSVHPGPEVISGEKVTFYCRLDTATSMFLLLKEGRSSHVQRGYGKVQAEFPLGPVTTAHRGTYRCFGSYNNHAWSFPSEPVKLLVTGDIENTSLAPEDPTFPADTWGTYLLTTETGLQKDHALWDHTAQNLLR

B1: Naratuximab IgG (parent CD37 IgG) (antibody, V domains shown)
VH: QVQVQESGPGLVAPSQTLSITCTVSGFSLTTSGVSWVRQPPGKGLEWLGVIWGDGSTNYHPSLKSRLSIKKDHSKSQVFLKLNSLTAADTATYYCAKGGYSLAHWGQGTLVTVSS
VL: DIQMTQSPSSLSVSVGERVTITCRASENIRSNLAWYQQKPGKSPKLLVNVATNLADGVPSRFSGSGSGTDYSLKINSLQPEDFGTYYCQHYWGTTWTFGQGTKLEIKR
Turning to B1, in assay [1], the EC50 of ADCC (calcein release) on Ramos cells with primary human NK cells was 5.97 pM, the EC50 of ADCP on Ramos cells with THP-1 effector cells came to 37.4 pM and the EC50 of CDC (PI+ cells) on Daudi cells with normal human serum was determined as 450 pM.

B2: Naratuximab × NKp46-4 H1L2 CD37/NKp46 bispecific MB (protein, part only; not given: Fab constants, linkers, ferritin, scFc, not shown: another chain or arm of the molecule; large carriers; small tags and cut ends)
VH 1: QVQLVQSGAEVKKPGASVKVSCKASGYTFTSFTMHWVRQAPGQGLEWIGYINPSSGYTEYNQKFKDRVTITADKSTSTAYMELSSLRSEDTAVYYCVRGSSRGFDYWGQGTLVTVSS
VL 1: DIQMTQSPSSLSASVGDRVTITCRASENIYSNLAWFQQKPGKAPKLLVYAATNLADGVPSRFSGSGSGTDYTLTISSLQPEDFATYYCQHFWGTPRTFGGGTKVEIK
VH 2: B1 VH
VL 2: DIQMTQSPSSLSVSVGERVTITCRASENIRSNLAWYQQKPGKSPKLLVNVATNLADGVPSRFSGSGSGTDYSLKINSLQPEDFGTYYCQHYWGTTWTFGQGTKLEIK
For B2, in assay [1], the EC50 of ADCC (calcein release) on Ramos cells with primary human NK cells was 0.777 pM and the EC50 of apoptosis (Annexin-V+ cells, flow cytometry) on Daudi cells was 73 pM. In addition, in assay [2], the Kd was 17.5 pM, the koff is 3.42e-05 s⁻¹ and the kon was 1.96e+06 M⁻¹ s⁻¹.

B3: Naratuximab × NKp46-1 H1L1 CD37/NKp46 bispecific MB (protein, part only; not given: Fab constants, linkers, ferritin, scFc, not shown: another chain or arm of the molecule; large carriers; small tags and cut ends)
VH 1: QVQLVQSGAEVKKPGSSVKVSCKASGYTFSDYVINWVRQAPGQGLEWMGEIYPGSGTNYYNEKFKAKATITADKSTSTAYMELSSLRSEDTAVYYCARRGRYGLYAMDYWGQGTTVTVSS
VL 1: DIQMTQSPSSLSASVGDRVTITCRASQDISNYLNWYQQKPGKAPKLLIYYTSRLHSGVPSRFSGSGSGTDFTFTISSLQPEDIATYFCQQGNTRPWTFGGGTKVEIK
VH 2: B1 VH
VL 2: B2 VL 2
With B3, in assay [1], the EC50 of ADCC (calcein release) on Ramos cells with primary human NK cells was 0.316 pM and the EC50 of apoptosis (Annexin-V+ cells, flow cytometry) on Daudi cells worked out at 54 pM. In assay [2], this molecule came in with a Kd below 1 pM, a koff below 1e-07 s⁻¹ and a kon of 3.65e+06 M⁻¹ s⁻¹.

B4: Naratuximab × NKp46 09 CD37/NKp46 bispecific MB (protein, part only; not given: Fab constants, linkers, ferritin, scFc, not shown: another chain or arm of the molecule; large carriers; small tags and cut ends)
VH 1: EVQLQQSGAEVKKPGSSVKVSCKTSGYTFTEYSMHWVRQAPGKSLEWFGGISPNSGGTSYNQKFKGRATLTVDKSSSTAYMELSSLRSEDTAVYYCARRDFHSSFDYWGQGTTVTVSS
VL 1: DIVMTQSPATLSLSPGERATLSCRASQSISDYLHWFQQKPHESPRLLIKYASQSISGIPARFSGSGSGSDFTLTISSLEPEDFAVYYCQNGHSFPLTFGPGTKVDIK
VH 2: B1 VH
VL 2: B2 VL 2
Take B4: in assay [1], the EC50 of ADCC (calcein release) on Ramos cells with primary human NK cells was 0.843 pM. In assay [2], the Kd was below 1 pM, the koff was below 1e-07 s⁻¹ and the kon worked out at 1.63e+06 M⁻¹ s⁻¹.

B5: Naratuximab × NKp46-2 H1L1 CD37/NKp46 bispecific MB (protein, part only; not given: Fab constants, linkers, ferritin, scFc, not shown: another chain or arm of the molecule; large carriers; small tags and cut ends)
VH 1: QVQLQESGPGLVKPSQTLSLTCTVSGYSISSDYAWNWIRQPPGKGLEWIGYITYSGSTSYNPSLESRVTISRDTSKNQFSLKLSSVTAADTAVYYCARGGYYGSSWGVFAYWGQGTLVTVSS
VL 1: DIQMTQSPSSLSASVGDRVTITCRVSENIYSYLAWYQQKPGKAPKLLVYNAKTLAEGVPSRFSGSGSGTDFTLTISSLQPEDFATYYCQHHYGTPWTFGGGTKVEIK
VH 2: B1 VH
VL 2: B2 VL 2
Take B5: in assay [1], the EC50 of ADCC (calcein release) on Ramos cells with primary human NK cells was 0.374 pM and the EC50 of apoptosis (Annexin-V+ cells, flow cytometry) on Daudi cells amounted to 32 pM. For the same molecule, in assay [2], the Kd is below 1 pM, the koff was below 1e-07 s⁻¹ and the kon came to 2.2e+06 M⁻¹ s⁻¹.

B6: 016-H5L2 IgG (parent CD37 IgG) (antibody, V domains shown)
VH: EVQLVESGGGLVQPGGSLRLSCAASGFSLSNYNMGWVRQAPGKGLEWVSVIDASGTTYYATWAKGRFTISRDNSKNTLYLQMNSLRAEDTATYYCARELLYFGSSYYDLWGQGTLVTVSS
VL: DVVMTQSPSTLSASVGDRVTITCQASQNIDSNLAWYQQKPGKAPKFLIYYASNLPFGVPSRFKGSGSGTEFTLTISSLQPDDFATYYCQSADVGSTYVAAFGGGTKVEIK
Consider B6, for which, in assay [1], the EC50 of ADCC (calcein release) on Ramos cells with primary human NK cells was 8.34 pM and the EC50 of ADCP on Ramos cells with THP-1 effector cells amounted to 21.4 pM.

B7: 016-H5L2 × NKp46-4 H1L2 CD37/NKp46 bispecific MB (protein, part only; not given: Fab constants, linkers, ferritin, scFc, not shown: another chain or arm of the molecule; large carriers; small tags and cut ends)
VH 1: B6 VH
VL 1: B6 VL
VH 2: B2 VH 1
VL 2: B2 VL 1
modifications: The variable domains sit in single-chain Fabs fused to human ferritin light chain. The NKp46 chain also carries a C-terminal scFc. The chains form a self-assembled multivalent nanocage.
For the molecule B7, in assay [1], the EC50 of ADCC (calcein release) on Ramos cells with primary human NK cells is 3.73 pM and the EC50 of apoptosis (Annexin-V+ cells, flow cytometry) on Daudi cells is 142 pM. Further, in assay [2], the Kd was below 1 pM, the koff was below 1e-07 s⁻¹ and the kon is 1.67e+06 M⁻¹ s⁻¹.

B8: 016-H5L2 × NKp46 09 CD37/NKp46 bispecific MB (protein, part only; not given: Fab constants, linkers, ferritin, scFc, not shown: another chain or arm of the molecule; large carriers; small tags and cut ends)
VH 1: B6 VH
VL 1: B6 VL
VH 2: B4 VH 1
VL 2: B4 VL 1
modifications: The variable domains sit in single-chain Fabs fused to human ferritin light chain. The NKp46 chain also carries a C-terminal scFc. The chains form a self-assembled multivalent nanocage.
For the molecule B8, the EC50 of ADCC (calcein release) on Ramos cells with primary human NK cells in assay [1] was 2.72 pM. In assay [2], this molecule registered a Kd below 1 pM, a koff below 1e-07 s⁻¹ and a kon of 1.06e+06 M⁻¹ s⁻¹.

B9: 016-H5L2 × NKp46-2 H1L1 CD37/NKp46 bispecific MB (protein, part only; not given: Fab constants, linkers, ferritin, scFc, not shown: another chain or arm of the molecule; large carriers; small tags and cut ends)
VH 1: B6 VH
VL 1: B6 VL
VH 2: B5 VH 1
VL 2: B5 VL 1
modifications: The variable domains sit in single-chain Fabs fused to human ferritin light chain. The NKp46 chain also carries a C-terminal scFc. The chains form a self-assembled multivalent nanocage.
As to B9, the EC50 of ADCC (calcein release) on Ramos cells with primary human NK cells in assay [1] was 2.91 pM. Moreover, in assay [2], the Kd is below 1 pM, the koff was below 1e-07 s⁻¹ and the kon came out at 1.25e+06 M⁻¹ s⁻¹.

B10: 016-H5L2 × NKp46-1 H1L1 CD37/NKp46 bispecific MB (protein, part only; not given: Fab constants, linkers, ferritin, scFc, not shown: another chain or arm of the molecule; large carriers; small tags and cut ends)
VH 1: B6 VH
VL 1: B6 VL
VH 2: B3 VH 1
VL 2: B3 VL 1
modifications: The variable domains sit in single-chain Fabs fused to human ferritin light chain. The NKp46 chain also carries a C-terminal scFc. The chains form a self-assembled multivalent nanocage.
On to B10, for which, in assay [1], the EC50 of ADCC (calcein release) on Ramos cells with primary human NK cells was 1.2 pM and the EC50 of apoptosis (Annexin-V+ cells, flow cytometry) on Daudi cells was determined as 102 pM. In assay [2], this molecule had a Kd below 1 pM, a koff below 1e-07 s⁻¹ and a kon of 2.15e+06 M⁻¹ s⁻¹.

For orientation: Kd means the constant that tells how readily two partners part at equilibrium. Read a low Kd as a tighter complex. As usually defined, the koff is the first-order rate constant of dissociation. Low readings indicate a long-lived complex, high ones a short-lived complex. What is called kon is the second-order rate constant of association. A higher kon goes with faster complex formation.
